Values of other authors in US10603364B2, “Lysosomal targeting and uses thereof” (Shire Human Genetic Therapies, Inc., priority 2014, dated 2020).

Key:
[1] = target: IGF-I receptor (Homo sapiens, UniProt P08069)
[2] = target: M6P/IGF II receptor (cation-independent mannose-6-phosphate receptor) (Homo sapiens, UniProt P11717)
Chain of M6P/IGF II receptor (cation-independent mannose-6-phosphate receptor) (P11717 41-2491): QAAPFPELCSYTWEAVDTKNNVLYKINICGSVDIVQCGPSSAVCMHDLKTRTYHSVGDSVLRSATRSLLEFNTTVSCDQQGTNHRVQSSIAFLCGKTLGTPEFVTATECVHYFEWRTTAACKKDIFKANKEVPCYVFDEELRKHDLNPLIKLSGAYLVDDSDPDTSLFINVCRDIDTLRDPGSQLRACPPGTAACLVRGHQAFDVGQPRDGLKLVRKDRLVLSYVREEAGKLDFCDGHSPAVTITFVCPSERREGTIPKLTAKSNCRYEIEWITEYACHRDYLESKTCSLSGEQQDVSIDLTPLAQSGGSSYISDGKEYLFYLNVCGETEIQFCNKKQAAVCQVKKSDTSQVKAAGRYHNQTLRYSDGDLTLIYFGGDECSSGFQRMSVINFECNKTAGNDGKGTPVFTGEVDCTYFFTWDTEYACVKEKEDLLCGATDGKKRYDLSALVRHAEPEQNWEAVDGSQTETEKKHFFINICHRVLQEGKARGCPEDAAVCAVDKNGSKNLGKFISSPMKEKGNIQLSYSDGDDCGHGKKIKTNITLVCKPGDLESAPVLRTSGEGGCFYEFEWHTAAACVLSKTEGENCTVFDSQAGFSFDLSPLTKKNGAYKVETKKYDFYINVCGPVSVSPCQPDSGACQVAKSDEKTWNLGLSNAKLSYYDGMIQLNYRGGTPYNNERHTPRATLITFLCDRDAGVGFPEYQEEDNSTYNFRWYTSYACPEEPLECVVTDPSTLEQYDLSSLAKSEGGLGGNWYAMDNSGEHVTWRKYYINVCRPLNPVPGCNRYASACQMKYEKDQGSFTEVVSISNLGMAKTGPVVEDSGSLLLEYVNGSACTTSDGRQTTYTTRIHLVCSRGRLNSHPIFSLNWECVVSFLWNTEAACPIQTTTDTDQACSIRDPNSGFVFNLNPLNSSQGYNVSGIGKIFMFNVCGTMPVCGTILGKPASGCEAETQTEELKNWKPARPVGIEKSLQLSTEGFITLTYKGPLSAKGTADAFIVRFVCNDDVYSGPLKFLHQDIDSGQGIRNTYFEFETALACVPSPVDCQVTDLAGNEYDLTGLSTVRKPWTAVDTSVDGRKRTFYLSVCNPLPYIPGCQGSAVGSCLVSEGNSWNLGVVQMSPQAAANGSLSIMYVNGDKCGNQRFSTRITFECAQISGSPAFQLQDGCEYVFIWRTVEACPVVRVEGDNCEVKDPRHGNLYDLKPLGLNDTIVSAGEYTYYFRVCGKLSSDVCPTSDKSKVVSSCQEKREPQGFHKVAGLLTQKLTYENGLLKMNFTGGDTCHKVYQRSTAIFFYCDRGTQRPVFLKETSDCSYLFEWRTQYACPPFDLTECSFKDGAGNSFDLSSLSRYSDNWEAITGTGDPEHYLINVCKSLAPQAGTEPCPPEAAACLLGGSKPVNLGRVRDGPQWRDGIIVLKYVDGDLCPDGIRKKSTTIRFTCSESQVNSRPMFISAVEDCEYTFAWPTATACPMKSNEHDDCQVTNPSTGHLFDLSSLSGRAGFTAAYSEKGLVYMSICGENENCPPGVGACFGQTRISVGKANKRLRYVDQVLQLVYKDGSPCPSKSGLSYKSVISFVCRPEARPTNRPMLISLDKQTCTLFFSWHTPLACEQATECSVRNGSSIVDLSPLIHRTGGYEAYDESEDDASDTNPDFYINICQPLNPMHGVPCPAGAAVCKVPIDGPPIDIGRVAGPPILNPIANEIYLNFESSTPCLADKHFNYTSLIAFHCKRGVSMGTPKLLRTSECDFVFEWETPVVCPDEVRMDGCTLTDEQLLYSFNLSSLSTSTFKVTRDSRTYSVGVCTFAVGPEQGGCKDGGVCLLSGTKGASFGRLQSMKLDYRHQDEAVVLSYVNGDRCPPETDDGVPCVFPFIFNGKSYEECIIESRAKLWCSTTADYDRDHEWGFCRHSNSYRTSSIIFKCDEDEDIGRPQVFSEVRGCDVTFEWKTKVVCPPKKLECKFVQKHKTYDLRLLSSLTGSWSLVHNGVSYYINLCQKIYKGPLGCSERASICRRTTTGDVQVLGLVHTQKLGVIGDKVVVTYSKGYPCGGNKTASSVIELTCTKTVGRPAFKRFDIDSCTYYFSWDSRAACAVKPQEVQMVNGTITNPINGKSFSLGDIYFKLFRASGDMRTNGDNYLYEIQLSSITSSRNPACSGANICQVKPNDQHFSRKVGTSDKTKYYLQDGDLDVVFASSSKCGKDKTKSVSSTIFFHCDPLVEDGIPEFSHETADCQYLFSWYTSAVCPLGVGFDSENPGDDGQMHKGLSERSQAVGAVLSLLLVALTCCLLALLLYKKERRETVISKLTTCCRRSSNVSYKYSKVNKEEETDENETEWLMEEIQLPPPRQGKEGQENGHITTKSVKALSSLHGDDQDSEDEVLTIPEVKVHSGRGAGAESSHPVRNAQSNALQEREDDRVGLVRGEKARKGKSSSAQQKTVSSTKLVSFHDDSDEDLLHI

Chain of IGF-I receptor (P08069 31-736 limits assumed, species assumed): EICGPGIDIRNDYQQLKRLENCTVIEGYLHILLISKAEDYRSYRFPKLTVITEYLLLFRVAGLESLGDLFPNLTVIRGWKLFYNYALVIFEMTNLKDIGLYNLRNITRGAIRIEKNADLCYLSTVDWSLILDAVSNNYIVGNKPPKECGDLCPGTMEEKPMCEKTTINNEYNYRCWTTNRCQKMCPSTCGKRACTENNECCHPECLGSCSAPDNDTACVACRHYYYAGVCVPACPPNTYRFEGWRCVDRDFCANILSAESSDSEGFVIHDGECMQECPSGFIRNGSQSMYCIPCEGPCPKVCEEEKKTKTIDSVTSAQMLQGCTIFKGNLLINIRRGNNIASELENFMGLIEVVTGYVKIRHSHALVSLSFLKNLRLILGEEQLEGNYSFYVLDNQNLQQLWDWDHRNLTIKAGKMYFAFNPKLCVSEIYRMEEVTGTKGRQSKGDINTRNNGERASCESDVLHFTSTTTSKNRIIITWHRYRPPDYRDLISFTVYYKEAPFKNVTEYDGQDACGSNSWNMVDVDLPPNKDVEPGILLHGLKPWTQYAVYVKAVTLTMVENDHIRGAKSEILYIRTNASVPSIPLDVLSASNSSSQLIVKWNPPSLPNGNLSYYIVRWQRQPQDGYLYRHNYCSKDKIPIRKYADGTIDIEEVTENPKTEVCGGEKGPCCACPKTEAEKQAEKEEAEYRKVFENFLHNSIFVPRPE
Chain of IGF-I receptor (P08069 741-1367 partner limits assumed, species assumed): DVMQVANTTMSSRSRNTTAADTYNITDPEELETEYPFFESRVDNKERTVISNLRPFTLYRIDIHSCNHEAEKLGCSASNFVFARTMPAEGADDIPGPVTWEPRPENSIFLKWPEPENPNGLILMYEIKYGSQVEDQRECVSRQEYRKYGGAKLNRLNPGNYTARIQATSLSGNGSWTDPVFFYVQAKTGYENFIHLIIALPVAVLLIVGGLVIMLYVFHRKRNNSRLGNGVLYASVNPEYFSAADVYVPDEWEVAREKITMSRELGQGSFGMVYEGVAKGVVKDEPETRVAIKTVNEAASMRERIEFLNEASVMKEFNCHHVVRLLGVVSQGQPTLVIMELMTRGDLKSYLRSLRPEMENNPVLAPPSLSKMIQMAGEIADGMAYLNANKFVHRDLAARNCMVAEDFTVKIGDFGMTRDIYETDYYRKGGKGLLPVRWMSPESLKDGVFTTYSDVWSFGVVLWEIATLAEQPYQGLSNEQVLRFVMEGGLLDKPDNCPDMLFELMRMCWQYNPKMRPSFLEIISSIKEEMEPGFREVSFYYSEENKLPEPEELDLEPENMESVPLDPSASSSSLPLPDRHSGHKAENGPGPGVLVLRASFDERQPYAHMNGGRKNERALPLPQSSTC

decrease in ability to bind IGF-I receptor compared to full-length IGF-II [1]: 30 fold | higher affinity for M6P/IGF II receptor compared to full-length IGF-II [2]: 2-10 fold
Substance: IGF-II sequence containing amino acid 8-67: amino acid residues 8-67 of the Insulin-like Growth Factor II peptide sequence, SEQ ID NO:21
